{"source": "IntAct's records for PubMed 17167421", "parents": {"B1": {"name": "Synaptotagmin-2 (Rattus norvegicus (Rat)), P29101 (parent)", "chain": "MRNIFKRNQEPIVAPATTTATMPLAPAAPADNSTESTGTGESQEDMFAKLKDKFFNEINKIPLPPWALIAMAVVAGLLLLTCCFCICKKCCCKKKKNKKEKGKGMKNAMNMKDMKGGQDDDDAETGLTEGEGEGEEEKEPENLGKLQFSLDYDFQANQLTVGVLQAAELPALDMGGTSDPYVKVFLLPDKKKKYETKVHRKTLNPAFNETFTFKVPYQELGGKTLVMAIYDFDRFSKHDIIGEVKVPMNTVDLGQPIEEWRDLQGGEKEEPEKLGDICTSLRYVPTAGKLTVCILEAKNLKKMDVGGLSDPYVKIHLMQNGKRLKKKKTTVKKKTLNPYFNESFSFEIPFEQIQKVQVVVTVLDYDKLGKNEAIGKIFVGSNATGTELRHWSDMLANPRRPIAQWHSLKPEEEVDALLGKNK"}}, "data": [{"variants_of": "B1", "settings": "with bxb_clobo botB", "values": [{"variant": "F55A", "effect of a mutation on the interaction": "disrupting interaction strength"}, {"variant": "F54A", "effect of a mutation on the interaction": "disrupting interaction strength"}, {"variant": "E57K", "effect of a mutation on the interaction": "disrupting interaction strength"}, {"variant": "F47A", "effect of a mutation on the interaction": "disrupting interaction strength"}, {"variant": "L50A", "effect of a mutation on the interaction": "decreasing interaction strength"}]}]}
